Measured values taken from the supplement of paper PMC12764529.
± gives the half width of the 95% confidence interval.

Tests used:
[1] = folding stability dG unfold (combined trypsin and chymotrypsin); higher = more stable
Method in brief: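 Only designs with AlphaFold2 dimer inter-PAE above 15 were retained; each was a mini-protein under 80 residues with no cysteine, in a PA-tagged cDNA display construct. After digestion with trypsin and chymotrypsin and sequencing, K50 was inferred by Bayesian fitting of counts, and unfolding free energy was derived per protease or combined against a sequence-predicted unfolded-state K50 and a shared folded-state K50.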

[2] = folding stability dG unfold from chymotrypsin proteolysis; higher = more stable
Experimental: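 Folding stability of de novo designed mini-proteins (<80 aa, no Cys; designed by TrROS, TrMRF, ProteinMPNN and the joint model) was measured by cDNA display proteolysis with trypsin and chymotrypsin. Each protease was used at 11 concentrations in a threefold dilution series plus a no-protease condition. K50 was inferred by Bayesian fitting of sequencing counts, and dG unfold was derived against a sequence-predicted unfolded-state K50 (Tsuboyama et al. method). Sequences shown include variable-length N-terminal GS-type padding (SAGGSAGG...) inside a display construct carrying a PA tag. Rows were kept only if the AF2 dimer inter-PAE was >15, to exclude likely homo-oligomers.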

Which “folding stability dG unfold” value [1] does the source give for “SAGGSAGGSAGGSKRIRITIPENYRVRGPNGKQFSWNDIEELKASGFKPIEIEPLPPGASAGGSAGGSAGGS [r4_47_TrROS]” here?
The value was < -1 kcal/mol.

What about the “folding stability dG unfold” value [2] of the same sequence?
Its value is -1.06 ± 0.4 kcal/mol.

Which “folding stability dG unfold” value [1] does the source give for “SAGGSAGGSAGGSLAPALAAAIAPLLPKDGTFVFVAEPVGDRLVIVTETRPLREDEERGSAGGSAGGSAGGS [r4_350_TrMRF]” here?
Its value is -0.707 ± 0.25 kcal/mol.

And the “folding stability dG unfold” value [2]?
The value was 0.496 ± 0.047 kcal/mol.

With “SAGGSAGGSAGGSLEEKAEAAYKKNPTTVPVELPLPGGVPATLTVTRTSPDSLDITRTLSAGGSAGGSAGGS [r10_395_JUSTAS]” as the sequence, how does the “folding stability dG unfold” value [1] read?
Its value is < -1 kcal/mol.

And the “folding stability dG unfold” value [2]?
The value was 0.232 ± 0.2 kcal/mol.

For “SAGGSAGGSAGGSMEVVETEEPGPGEERIRIVRFKEKTIVTRTPPDGVPTSEELPISELSAGGSAGGSAGGS [r10_1075_JUSTAS]”, which “folding stability dG unfold” value [1] is on record?
Its value is -0.247 ± 0.2 kcal/mol.

What about the “folding stability dG unfold” value [2] of the same sequence?
Its value is 0.0261 ± 0.2 kcal/mol.

With “SAGGSAGGSAGGSMKKVEVEIPYSFEGPPTFNPEEIEKKLKEEGINAKIKTKYIPKSKEKSAGGSAGGSAGG [r7_355_JUSTAS]” as the sequence, how does the “folding stability dG unfold” value [1] read?
The value was -0.321 ± 0.7 kcal/mol.

What about the “folding stability dG unfold” value [2] of the same sequence?
The value was -0.145 ± 0.39 kcal/mol.

With “SAGGSAGGSAGGSMSTLSLTIPVGGEPVSVTVQQLYDPTKNTTTTLLPPEAAAVIARAAGSAGGSAGGSAGG [r11_91_JUSTAS]” as the sequence, how does the “folding stability dG unfold” value [1] read?
Its value is < -1 kcal/mol.

And the “folding stability dG unfold” value [2]?
Its value is -0.449 ± 0.19 kcal/mol.

What does the source list for “SAGGSAGGSAGGSPFEGPRPVVVKPVSPEILAKTPPEEVKKRLKEELPESVTIVETNPLPSAGGSAGGSAGG [r7_487_JUSTAS]”?
folding stability dG unfold [1]: < -1 kcal/mol; folding stability dG unfold [2]: 0.12 ± 0.1 kcal/mol

For “SAGGSAGGSAGGSPSTRTPITVEVKSPTALSRFTYDTGLSPAEIAAPFAAGGYTVTFVSSAGGSAGGSAGGS [r10_540_JUSTAS]”, which “folding stability dG unfold” value [1] is on record?
The value was -0.538 ± 0.16 kcal/mol.

What about the “folding stability dG unfold” value [2] of the same sequence?
Its value is -0.127 ± 0.22 kcal/mol.

For “SAGGSAGGSAGGSSRVLKGKDTTVVLYPDSVTFYPGSTGTPVVKSISDPEVVEEIKKLLSAGGSAGGSAGGS [r4_353_JUSTAS]”, which “folding stability dG unfold” value [1] is on record?
The value was < -1 kcal/mol.

What about the “folding stability dG unfold” value [2] of the same sequence?
Its value is -0.192 ± 0.33 kcal/mol.

What does the source list for “SAGGSAGGSAGGSSSSSGTTLVPVTITTETFLNDDTPVTTVTTVLKTLAPDETLADLLASAGGSAGGSAGGS [r4_283_JUSTAS]”?
folding stability dG unfold [1]: -0.519 ± 0.26 kcal/mol; folding stability dG unfold [2]: -0.292 ± 0.11 kcal/mol

What does the source list for “SAGGSAGGSAGGSSVSVSFDPATGTRTVTYTTLDPSNGKILSSTTSTTAVALAATPAAASAGGSAGGSAGGS [r10_842_JUSTAS]”?
folding stability dG unfold [1]: -0.288 ± 0.17 kcal/mol; folding stability dG unfold [2]: 0.661 ± 0.058 kcal/mol

What does the source list for “SAGGSAGGSAGGTIQWDPANGRIKITNPNGKKKTIPIPPDDPEEFLKELKDNGIDRIEPVSAGGSAGGSAGG [r7_139_TrROS]”?
folding stability dG unfold [1]: 0.38 ± 0.25 kcal/mol; folding stability dG unfold [2]: 0.964 ± 0.075 kcal/mol

With “SAGGSAGGSAGGTKELAEALRDAGYEVEYDKATNKIEVRPKPKPKPVVKTVTFVPKEDLSAGGSAGGSAGGS [r10_1173_TrROS_Hall]” as the sequence, how does the “folding stability dG unfold” value [1] read?
Its value is -0.51 ± 0.36 kcal/mol.

And the “folding stability dG unfold” value [2]?
Its value is -0.433 ± 0.11 kcal/mol.

For “SAGGSAGGSAGGTLIKTSDDTIVIPIGDPEEAEKAAEEIKAKLGDVDLKVEILSPEELRGSAGGSAGGSAGG [r7_645_JUSTAS]”, which “folding stability dG unfold” value [1] is on record?
The value was 0.13 ± 0.14 kcal/mol.

What about the “folding stability dG unfold” value [2] of the same sequence?
The value was 0.487 ± 0.032 kcal/mol.

With “SAGGSAGGSAGGTTLLFPDKIIRTLPLPPGAVFDVPPGLTLEGVEEDPSTGTLTVTVKGLSAGGSAGGSAGG [r11_942_JUSTAS]” as the sequence, how does the “folding stability dG unfold” value [1] read?
The value was -0.211 ± 0.24 kcal/mol.

And the “folding stability dG unfold” value [2]?
Its value is 0.0814 ± 0.14 kcal/mol.

For “SAGGSAGGSAGGTVVPEKEARELARKVAEKGEPIEVEIGDPGPKKPRTVLITPEDLEERSAGGSAGGSAGGS [r10_779_JUSTAS]”, which “folding stability dG unfold” value [1] is on record?
The value was < -1 kcal/mol.

And the “folding stability dG unfold” value [2]?
Its value is -0.219 ± 0.18 kcal/mol.

For “SAGGSAGGSAGGWTLEELKNAPPGEPVTITIPMYSPNGDKKQPMRIRITPDDGEIEIEMSAGGSAGGSAGGS [r10_394_TrROS]”, which “folding stability dG unfold” value [1] is on record?
The value was 0.406 ± 0.15 kcal/mol.

What about the “folding stability dG unfold” value [2] of the same sequence?
The value was 0.908 ± 0.13 kcal/mol.

With “SAGGSAGGSAGIIEFPFPLNEAKKLAENLPPGFRPVNVEPDPDNDRIWVIIQVVPPKKGKSAGGSAGGSAGG [r17_98_TrROS]” as the sequence, how does the “folding stability dG unfold” value [1] read?
The value was < -1 kcal/mol.

And the “folding stability dG unfold” value [2]?
The value was -0.992 ± 0.73 kcal/mol.

Which results are given for “SAGGSAGGSAGKEPILAIPNPEFPDVVIIKTKDGVRAVPVEELKELDIDAVMSLEEALASSAGGSAGGSAGG [r17_88_TrMRF]”?
folding stability dG unfold [1]: 0.174 ± 0.2 kcal/mol; folding stability dG unfold [2]: 0.731 ± 0.067 kcal/mol

With “SAGGSAGGSAGKKKIHVHQYPDGNYHIRVPNGKSYHFPPEDADELVEELGIDEVEIHPMDSAGGSAGGSAGG [r11_312_TrROS]” as the sequence, how does the “folding stability dG unfold” value [1] read?
The value was -0.407 ± 0.16 kcal/mol.

What about the “folding stability dG unfold” value [2] of the same sequence?
Its value is 0.0552 ± 0.089 kcal/mol.

Which results are given for “SAGGSAGGSAGKKKITIDYEEIREKFGLPPDDIDNMSMSRVMNYAKPLAKEGKIDEIEISSAGGSAGGSAGG [r11_80_TrROS]”?
folding stability dG unfold [1]: < -1 kcal/mol; folding stability dG unfold [2]: -0.291 ± 0.53 kcal/mol
